Experimental data reported in publication PMC3852656.

Columns and labels:
[1] = target: superfolder Cherry (sfCherry); assay: native gel or EMSA; native polyacrylamide gel at ∼10 mg/ml protein concentration
[2] = target: superfolder Cherry (sfCherry); assay: crystal structure; sfCherry alone, 2.0 Å, space group P21, eight copies in the asymmetric unit; 0.1 M SPG buffer pH 5.0, 25% PEG 1500

- percent dimer [1]: 50%
- stoichiometry N [1]: 2
- stoichiometry N [2]: 2
Substance: superfolder Cherry (sfCherry)
